The test system of this series is Bacillus subtilis DB104 (SP-AmyQ fusion secretion). Description: AmyQ secretion efficiency, weighted average sort bin (1 = best secretion, 10 = worst) (bin number (weighted average, 1-10)); higher = lower secretion efficiency. The method in brief:
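A B. subtilis DB104 library carrying amyE-integrated fusions of designed signal peptides to mature AmyQ was encapsulated at about 0.3 cells per ~65 nL alginate bead with fluorescein-starch and grown about 13 h at room temperature. Following nile red staining, occupied beads were flow-sorted as large particles into 10 equally populated bins by green/red fluorescence ratio, and the bin amplicons were Illumina-sequenced. The secretion score is the read-frequency-weighted average bin number normalised to beads per bin, leaving out low-abundance sequences.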

Our source for the AmyQ secretion efficiency values is the supplement of paper PMC9942255.

Several values for one entry are separate records, joined by “and”; a condition that tells them apart may be missing. Equal entries are not always repeated.

For MKKISSVMLATALFLGLTPAGANAADL, the AmyQ secretion efficiency worked out at 3.26.

As for MKLKSKLFVICLAAAAIFTAAGVSANNEALDF, the AmyQ secretion efficiency was determined as 5.76.

For the sequence MKRFSTAYLLLGILCSAAVFLIGAPSRALAAEV, the AmyQ secretion efficiency was 2.35.

In the case of MSVMTTMLLSTAAGLLLSLTATSVSAHYV, the AmyQ secretion efficiency worked out at 4.5.

As for MKKRLIGFLVLVPALIMSGITLIEPNKK, the AmyQ secretion efficiency is 7.44.

In turn, MGMKKKLSLGVASAALGLALVGGGGWAAFN showed an AmyQ secretion efficiency of 6.46.

As for MKKWMAGLFLAAAVLLCLMVPQQIQGASS, the AmyQ secretion efficiency was 4.93 and 4.6 and 5.33.

In the case of MLMLWNSLALCGLALTLAPCAQAAEP, the AmyQ secretion efficiency was 2.76.

MPIKKKVMMCLAVTLVFGSMRRKTLTNSGGFKE yielded an AmyQ secretion efficiency of 7.75.

MKKAAAVLLSLGLVFGFSYGAGHVAEAAKK had an AmyQ secretion efficiency of 5.64.

Consider MNKKYFVLIVCIIFTSALFPTFAVTVTAAQG, for which the AmyQ secretion efficiency was found to be 1.05.

As to MKKWIYVVLVLSIAGIGGFSVHRASS, the AmyQ secretion efficiency amounted to 6.42.

MFKKLLLATSALTFSLSLVLPLDGHAKAQED returned an AmyQ secretion efficiency of 2.98.

As for MHQIRAAGAVCLAVVLIAGCRFNEDQHQAEGENT, the AmyQ secretion efficiency amounted to 6.4.

Sequence MRKKRYGKCRQGSSLTLGSLLPAGYATAKED yielded an AmyQ secretion efficiency of 8.17.

Consider MKKRLIAPMLLSAASLAFFAMSGSAQCAAY, for which the AmyQ secretion efficiency came to 6.

In the case of MRKNRILALFVLSLGLLSFMVTPCSAASK, the AmyQ secretion efficiency amounted to 2.01.

Regarding MKKRLIGFLVLVPALIMSGITLIEANSE, the AmyQ secretion efficiency came out at 7.68.

In turn, MLKKIALTLCPAIVGSLLFFTAPASAHVK showed an AmyQ secretion efficiency of 2.44.

Turning to MGLGKKLSVAVAASFMSLSISLPGVQARKR, the AmyQ secretion efficiency came out at 6.96.

On to MKKKLAAGLTASAIVGTTLVVTPTAAEAATI, for which the AmyQ secretion efficiency turned out to be 2.99.

MIVIKRKRKRIIVFLSVIQPQPS came in with an AmyQ secretion efficiency of 8.52.

For the sequence MKKWMITIAMLKKAGIALFVFISPLKSHKT, the AmyQ secretion efficiency came to 6.51.

In turn, MKKRLIAPMLLSAASLAFFAMSGSAQMAAY gave an AmyQ secretion efficiency of 6.46.

As for MKKLLAAGIIGLLTVSIASPSFWAEK, the AmyQ secretion efficiency amounted to 7.9.

Sequence MKSKVKIAGVLTVAAAAMTAKMYATAKGN showed an AmyQ secretion efficiency of 7.17.

Turning to MRIFKKAVFVIMISFLIATVNVNTCHAAID, the AmyQ secretion efficiency amounted to 3.94.

In turn, MITAAAVLLSLGLVFGFSYGAGHVAEAKTK returned an AmyQ secretion efficiency of 3.09.

Sequence MTMLRKIIGWILLLCIIPLFAFTVICSGKEV showed an AmyQ secretion efficiency of 7.14.

In turn, MPKKCSVCLWILVLLLSCLSGKSAYAATS gave an AmyQ secretion efficiency of 2.99.

In turn, MFNRLFRVCFLAALIMAFTLPNSFYAQKP registered an AmyQ secretion efficiency of 6.02.

MKKKQVMLALTAAAGLGLTALHSAPALKAAPL came in with an AmyQ secretion efficiency of 4.89.

On to MKQTMIFLTSFMLLAMTGQTALAKDV, for which the AmyQ secretion efficiency was found to be 3.23.

Turning to MGRFSTAYLLLGILCSAAVFLIGAPSRALGAEV, the AmyQ secretion efficiency is 2.59.

For MKKWTIIAVSLAIAIVLFMYTKGEAKAAGM, the AmyQ secretion efficiency was found to be 2.14.

The sequence “MGLGKKLSVAVAASFMSLSISLPGAVGPGFPTFPSVQAAEG” gave an AmyQ secretion efficiency of 1.21.

MKRKKCSICCAAVLLAGGAAQAEAV returned an AmyQ secretion efficiency of 6.17.

In turn, MKKKLAAGLTASAIVGTTLVVTPPTAPGGAEAATI registered an AmyQ secretion efficiency of 6.5.

The sequence MKKRLIGFLVLVPALIMSGITLIENNKK showed an AmyQ secretion efficiency of 6.74.

Consider MKKRITYSLLALLAVVAFAFFSIAGAKAAEA, for which the AmyQ secretion efficiency came to 4.27.

As to MFLFQVSHAIIISVMLSFVIAVFHTIHASELTP, the AmyQ secretion efficiency was 6.77.

Turning to MGLGKKLSVAVAASFMSLSISLPGVQTAEG, the AmyQ secretion efficiency worked out at 3.78.

As for MKLWMRKTLVVLFTIVTFGLVSPPAAIMADKP, the AmyQ secretion efficiency came out at 1.63.

MKKWLIIAVSLAIAIVLFMYTKGEAKAAGK: the AmyQ secretion efficiency is 2.87.

The sequence MKVLLSALLLLLFAFGPSASGKKL yielded an AmyQ secretion efficiency of 5.45.

As for MKSKGSIMACLILFSFTITTFINTETISRFSN, the AmyQ secretion efficiency came out at 8.63.

For MKLRKVLTGSVLSLGLLIVSASPAFATSP, the AmyQ secretion efficiency is 2.48.

MKKAAAVLLSLGLVFGFSYGAGHVAECKTK displayed an AmyQ secretion efficiency of 4.74.

The sequence MKIRKILLSSALSFGMLISAVPCLAAGT showed an AmyQ secretion efficiency of 2.

Take MKNMSCKLRRRRKRFFSFLTIGPLAHAQNS: the AmyQ secretion efficiency was found to be 7.37.

With MKKQIITATTAVVLGSTLFAGAYSAQSI, the AmyQ secretion efficiency amounted to 5.58.

The sequence MKKRKRRNFKRFIAAFLVLALMISLVPADVLAEED returned an AmyQ secretion efficiency of 3.75.

In turn, MKKKKRYSQRFLVALTMCGGLFVTPAKAVKT showed an AmyQ secretion efficiency of 6.94.

On to MKKAFILSAAAAVGLFTFGGVQQASGKEL, for which the AmyQ secretion efficiency came out at 3.67.

As for MAIIIAIIAAVIVIAALITFNVRNWSPG, the AmyQ secretion efficiency is 8.18.

The sequence MKRIRIPMTLALGAALTIAPLSFASWEEN returned an AmyQ secretion efficiency of 6.97.

In turn, MRSYIKVLTMCFLGLILFVPTGVFGSSPPFAAALADNS returned an AmyQ secretion efficiency of 3.3.

MGSRTIWTIILGALLVCCIAVAYTLTKSQAGASSS had an AmyQ secretion efficiency of 5.01.

Take MRKKCSVCKRILVLLLSCLSGKSAYAATS: the AmyQ secretion efficiency came out at 7.44.

In turn, MKRIRIPMTLALGAALTIAPLSFTSAEEN came in with an AmyQ secretion efficiency of 3.52.

Regarding “MKKKTLSLFVGLMLLIGLLFSGSLPYNPNAAEASSS [wt_amyM]”, the AmyQ secretion efficiency was 3.81.

As for MPYLKRVLLLLVTGLAVTATASAQTG, the AmyQ secretion efficiency was found to be 1.97.

In the case of MKKRLIAPMLLSAASLAFFAMSGSIQAAAY, the AmyQ secretion efficiency amounted to 6.12.

In the case of MKLKKRVSMTSKSSGSCRSLFVTPAKAVKT, the AmyQ secretion efficiency stood at 7.23.

In turn, MLCVMMLLFSAIASFPVSIQAKDQ yielded an AmyQ secretion efficiency of 6.18.

Consider MTMLRKIIGWILLLCIIPLFAFTVIASFKEV, for which the AmyQ secretion efficiency turned out to be 6.97.

The sequence MKNMSCKLVVSVTLFFSFLTIGPLLHAQNS yielded an AmyQ secretion efficiency of 1.77.

MHLIRAAGAVCLAVVLIAGCREAEGENT displayed an AmyQ secretion efficiency of 4.69.

In turn, MKKVLMAFIICLSLILSVLAAPPSGIKAESV gave an AmyQ secretion efficiency of 3.36.

Sequence MTKRGIQAFAGGIILATAVLAAVFKKTKKDQAAAV came in with an AmyQ secretion efficiency of 7.92.

Turning to MKLAKRVSALTPSTTLAITAKTKEL, the AmyQ secretion efficiency came out at 7.68.

Consider MTTKFTALAVFLKEHTQASLL, for which the AmyQ secretion efficiency is 6.23.

As for MKKKLAAGLTASAIVGTTLVVTPAEAATD, the AmyQ secretion efficiency was 2.88.

Sequence MGMKKKLSLGVASAALGLALVGKKRTWAAFN returned an AmyQ secretion efficiency of 8.1.

The sequence MKKKLAAGLTASAIVGTTLVIVTPAEAATI came in with an AmyQ secretion efficiency of 3.35.

Turning to MKKRKRRNFKRFIAAFLVLALMISLVPADVLAAKR, the AmyQ secretion efficiency was 5.17.

For MKLAKRVSALTPSTTLAITAKAAPL, the AmyQ secretion efficiency stood at 8.19.

Sequence MKKRLIAPMLLSAASLAFFAMSGSKQAAAY came in with an AmyQ secretion efficiency of 3.82.

MRKYTFVIASILLSFLSVLSGGHHESKAFPV displayed an AmyQ secretion efficiency of 5.44.

As to MFKKHTISLLIIFLLASAVLAKPAEAHTV, the AmyQ secretion efficiency turned out to be 2.44.

Regarding MKKVMLATALFLGLTPAGANIADL, the AmyQ secretion efficiency came to 6.67.

For MKLWMRKTLVVLFLIVFFFLGTVSPPAALMADKP, the AmyQ secretion efficiency is 3.95.

For MLTKRLLTIYIMLLGLIFLVALAWFPGAAQAEEK, the AmyQ secretion efficiency was determined as 4.8.

MRKKRRRVITCVMAASLTLGSLLPAGYATAKED yielded an AmyQ secretion efficiency of 3.9.

Sequence MKIRKILLSSALSFGMLISAVPALMAGT returned an AmyQ secretion efficiency of 6.44.

Take MSMIGLLFMLCLAALFTIGFPAQQADAAEA: the AmyQ secretion efficiency worked out at 2.

MKKQIITATTAVVLGSTLFAGAPSAQSI showed an AmyQ secretion efficiency of 3.52.

MLKKKWMVGLLAGCLAAGGFSYNAFHTEN showed an AmyQ secretion efficiency of 6.18.

In turn, MKKWIYVVLVLSIAGIGGFSVHYASS displayed an AmyQ secretion efficiency of 8.11.

For the sequence MKKRFFGPIILAFILFAGAIAKKK, the AmyQ secretion efficiency was 7.24.

MRPVFPLILSAVLFLSCFFGARQTEASASSD had an AmyQ secretion efficiency of 1.96.

Turning to MKKAAAVLLSLGLVFGFSYGAGHVAEADDD, the AmyQ secretion efficiency was determined as 5.61.

Regarding MLKKIALTLCPAIVGSLLFFTAPASFHVS, the AmyQ secretion efficiency is 7.41.

In the case of MKSKGSIMACLILFSFTITEISAFSN, the AmyQ secretion efficiency was found to be 6.82.

In turn, MKLWMRKTLVVLFTIVTFGLVSPPAALMIDKP returned an AmyQ secretion efficiency of 2.83.

With MKKTIMSFVAVAALSTTAFGAHSSAKEI, the AmyQ secretion efficiency was 3.37.

In the case of MKKGKRTRTIGLLTVSIASPSFAAEK, the AmyQ secretion efficiency turned out to be 6.26.

Sequence MPIKKKVMMCLAVTLVFGSMSFPTLTNSGNFKE returned an AmyQ secretion efficiency of 5.35.

“MTMLRKIIGWILLLCIIVSVAATITLIPLFAFTVIASGKEV”: the AmyQ secretion efficiency is 4.26.

MKLSVKIAGVLTVAAAAMTAKMYATAAGD: the AmyQ secretion efficiency stood at 6.46.

MKKCLLFLTTIALILSGSTNAFAKNT came in with an AmyQ secretion efficiency of 1.7.

The sequence MRFTKVVGFLSVLGLAAVFPLTASSAAQAEKA gave an AmyQ secretion efficiency of 1.25.

For MPYLKRVLLLLVTGLFMSLFAVTATCSAQTG, the AmyQ secretion efficiency stood at 1.27.

As to MKKLLAAGIIGLLTVSIASPSFQAEK, the AmyQ secretion efficiency was 7.82.

MKRITINITIITMFIAAAVISLTGTAEAAEK came in with an AmyQ secretion efficiency of 2.69.

MKKTGQQLLSLGLVFGFSYGAGHVAEAKTK: the AmyQ secretion efficiency was 3.07.

For MPYLKRVLLLLVTGLFMSLAVTATASAQTG, the AmyQ secretion efficiency was 1.16.

As to MKSKGSIMACLILFSFTITTFINTETKSAFSN, the AmyQ secretion efficiency came out at 6.7.
